Experiment: soluble on expression in E. coli; label from the status in PepcDB or PDB records

Sequence | soluble on expression in E. coli
MSLEELVKKLGDKLNEAEADAKKFGKLIGRITRFESVSLKDNELIGVDIAFEDYLNSDVKKGQYLAIRSITRPVTILGQVRAITRADALSKLGIRELSYPKDPTTIITTTYVELKPIAEIENGKIRPPVSPVDPQSPVFIPNHDLIEKILNIPSRGITIGKIFSGGEETDASVRLDEYTLRHHTLILGTTGSGKTTLLKSMISSEEIDKGTFIFDRQGDFINYLIEKRRGFAVIMPVVEEASRSISLKDHAEKFANWYDCDNILDVKEDGVLEECNGSEVFLIPYSINFYSVLKNFNKITPYFTPKASMYWEAIVNNMFEIIGYDLYELADKKQTFYEDQLSDFLRDRLTPGSLLGKISGFYDLKMVSGSKSKQFSSYDGSKKMLTINMGKAFEEAMKRLDVPYQTKEAILRTLKAYDSYGIFTVPGTVDFKPKDVFSSYSDVVVDLSWVMNRSASIEAVATIAYKLLEDFFNWKDELYKMKETTKLTLVIMDEAHEYFPQTDQENVSKDIVEGLINRIMRLGRVRNIGVVLATHVPEDLNPLVLQLTNTKVVMRNESHVLRRLGLEEYEDFLRHATPGLAIVYSIYFSEVPIKTIQREGHHHHHH | soluble
HPEKCSECSYSCSSKAALRIHERIHCTDRPFKCNYCSFDTKQPSNLSKHMKKFHGDM | soluble
MPHIVKSTILDAPTDAAWSVLRDFNGHDRWHPAVATSMIERAQPSDKIGCVRRFKLKDGSELREQLLALSDLEQSFSYCLLDTPVPMFNYVAHVRLLPVTDGDRTFWHWESRFTTRPEDKDRITHMVAEDIYQAGFEAIRRHLKEAASSWPLEHHHHHH | soluble
MGSDKIHHHHHHMTTTTKKTAERLIKKYPNRRLYDTETSTYITLTDVKQLVLDQEDFKVIDAKSNEDLTRAILLQIILEEESGGLPMFSSSMLSQIIRFYGHAMQGMMGTYLEKNIQAFIDIQAKLADQSKNLYEGKAMNPEVWSQFMNMQAPMMQGMMTSYIEQSKNMFVQMQEQMQNQAKSMFATFPFTPGGAVNVAGGGNAPASPQGNPQGNPEPEKK | not soluble
MRTQWPSPAKLNLFLYITGQRADGYHTLQTLFQFLDYGDTISIELRDDGDIRLLTPVEGVEHEDNLIVRAARLLMKTAADSGRLPTGSGANISIDKRLPMGGGLGGGSSNAATVLVALNHLWQCGLSMDELAEMGLTLGADVPVFVRGHAAFAEGVGEILTPVDPPEKWYLVAHPGVSIPTPVIFKDPELPRNTPKRSIETLLKCEFSNDCEVIARKRFREVDAVLSWLLEYAPSRLTGTGACVFAEFDTESEARQVLEQAPEWLNGFVAKGANLSPLHRAMLLEHHHHHH | not soluble
MGSDKIHHHHHHMLLTIDDVLTQEELAIARSMLARSAWVSGLVTAGTQAAQVKNNQQVQENDPQIVNLRRLVLGALNRNALFFTATLPEKIVPPFFNRYSGETNHYGFHVDNAMRLLPDGSGYVRTDVSATLFLSDPQEYDGGELVINDTFGQHGVKLQAGSMVIYPSSSIHQVTPVTRGERLACFMFIQSMVRNPDQRRLLYEMDMALLQLRQNIGETPAVVSLTGTYHNLLRQWADS | not soluble
MGSDKIHHHHHHMYVLHICHSYYPPFLDCARQYAALFKDSPYKVVTVYLTGKPDPEVERGSASDEVVFLGYSSKQVKGLKLGAIAKIRQLVKSRNFAFCIAHRAKPTYVALLATGLPVVSVHHNYNDYGRFTRRILVNFYRKRILMLCVSNSVRDEMRQHLKHWPAEQIQTLYNRIDVDAVRQSLLPRQEARRLLELEDDTYVIANVGRLHRDKDQATLLRGFAQALPELPANTLLLILGKGPLEQELKALASELGIAGNVRFAGQVPEARRYFRAFDLFVLTSDHEPFGMVLLEAMAAELPIICSDSGGGAEVVNGYGDLFSLGNPHHLSSLLIARSRLPQAANSSADILHEKFSDAAARKHFFMLTFIKDLLFI | not soluble
GHMEELNIDFDVFKKRIELLYSKYNEFEGSPNSLLFVLGSSNAENPYQKTTILHNWLLSYEFPATLIALVPGKVIIITSSAKAKHLQKAIDLFKDPESKITLELWQRNNKEPELNKKLFDDVIALINSAGKTVGIPEKDSYQGKFMTEWNPVWEAAVKENEFNVIDISLGLSKVWEVKDVNEQAFLSVSSKGSDKFMDLLSNEMVRAVDEELKITNAKLSDKIENKIDDVKFLKQLSPDLSALCPPNYKFNFDLLDWTYSPIIQSGKKFDLRVSARSTNDQLYGNGCILASCGIRYNNYCSNITRTFLIDPSEEMANNYDFLLTLQKEIVTNILKPGRTPKEVYESVIEYIEKTKPELVPNFTKNIGSLIGLEFRDSNFILNVKNDYRKIQRGDCFNISFGFNNLKDSQSANNYALQLADTVQIPLDETEPPRFLTNYTKAKSQISFYFNNEEEDNNKKKSSPATKV | soluble
MKIAYLGPKGSFSHHVVQTAFPHEELQAFANITDVIKAYEQGLVNYSVVPVENSIEGSVHETLDYLFHQAHIQAVAEIVQPIHQQLMVVPGHTKIEKIFSHPQALAQGKKFIDEQYPEAQIEVTASTAYAARFISEHPDQPFAAVAPRSSAEEYGLELIAEDIQEMEANFTRFWVLGAEKPSIPLQAQTEKMSLALTLPDNLPGALYKALSTFAWRGIDLTKIESCPLKTALGEYFFIIDVDYTDKDLVHFAQKELEAIGIQYKILGAYPIYPISDHGKERR | soluble
MAHHHHHHMASLMGFLTVSKISEPPKASVAQEAFDYIYERIAAPAEVDVERFLEIGHFESLATATCLSLEDLSLYLFAFAVDESAKRIYKISEKHFVAWMAGLISKLPRNAAPPTRENAYAPLFAAAHDAIVDLNNTIRSNEEKRSKFYQFLYNWCLKGNDASDRVDSAKELWSCFFSASPVSLTVEEARRKFTAYVCFPRINQWLDFITMLGEKATESKSGRVAVEQSGVSFDTWTQLLLFARFDNYDAYDDEDSWPVTMDDFVVYVRKLEESKKV | not soluble
GPGSMPHGISYYEFPWPDMTAPQQDIVLRSVQVMDYHIKQKGKVLVHCHAGLGRTGLMIACYYVYSQHIPSDEAIALVRKMRPGAIQTTRQAQFIADFEKHLWRLSQAFRVEISDALIDLNLFIQRQRLVLHGEQADLYKSVPLFLHTILCRLLNLTKDNPEAARLALQSLGPSAAPTDTTLSACRIAINRRRFRVQSVRDVSILSFLVCDWFRSTSSPALTEENCDQIVESMRASISKQEGLPLEIRRILSKPARHTLGMVISAFFIISRQVGCVSLTNFAFRCVVDSFNHAFNPIKVRHSPLERELIHKFFLEWGESVGDLYFNYDTVPAAHRTIKRIALASSIVLEATKNTDPPRRSSPSVRTLSVPSSTPEMSSNPAKQTGAPDSALVFSTQSRASHLFDMPLAVETDSESKTRLWRQHLIEYRRDTDGRRGRGERQRPPASSADAKVKR | not soluble
MGNCESRELVAQAKQNKIINTELDKAKKTDENIIKLLLLGAGESGKSTVLKQMKIIHNSGFSQEEISNKRNVVCANTVQAMGALLDGMKQLQFDFSTRVCNAHEKLIRETLNDKAEYGPFSDAMFNALTELWADKGVQCAYDKREFFYLHDSAKYFFDAIARVHTPNYVPTENDILHTRVPTMGVIEVNFTIKGKFFRVFDVGGQRSQRKKWIHCFDDAKAMIYVASLSEYDQVLLEDNTTNRMHESIQLFKQVINNKYFVNTSVILFLNKIDLFEEKIVTKKRSLGIAFESFSGPSQDLNAAVAFVEKKYRSMAENKEKNIYCHHTCATDTQQVQYVLDAVLDTILSTKLKGCGLY | not soluble
GPGSMDDGFSRILLAWFSNNPSFGKTIPVTAGQAVLNTLYIRYVVNKSVSFEDILAYQFRWVSANDAATEVFNKFTDGKESMTSEQLGKFLRDVQRSDVTDRQIVEKFKYCFGGGIHKYNFISYNGSVLTNNAIDPARTSDVWQDMTQSFTHYMVSCARIEAEEDLKRAAADGTRALVLNINKASNGKLMVGSCELQTILEGVKKNGFATNTYPIVLCLSPGTPMPTPVQDEVAKMINDILESAVAEGLMFEGAMINDPKFSPGALRNKVLVMSHQSRLKPFIGFLVADMNKDGLGVRVTDVMEGTPASKGGVLKDDWLTHINGIPIQNKQHLRETLARLKAGDEFTVRRENLHDVKVVVGGAIDPQDTTASASLSSITFFKYSDSNDPKPWDTERIPASSLATTKLTRKDLLTHFAFCTVNSAEASTELPDAEGKAASLGIQFVDVDNSERCLPWTRGRFSDNGRCGYILKTDIDSAKSPELSLSVIGGPRLLNCSPLTSMNVTIHGAGTARVNGSQVSFTDCNQATIAVVQMTFEANGAERTFTSAFCPGLLRPGYRALPSVPFGEERASKKQIHGIYCFIK | not soluble
